# Source: patent US20110229461A1 (UCB, published 2011)
# Molecular target: T1, human PD-1 on cells (transfected HEK293 cells; human T cells) (human, UniProt Q15116 25-288)
# T1 construct: whole, on cells; HEK293 cells transiently transfected with human PD-1 DNA; also called PD-1 expressing HEK293 cells; PD-1 transfected HEK cells
# Experiment: flow cytometry on activated human T cells
# T1 sequence (Q15116 25-288): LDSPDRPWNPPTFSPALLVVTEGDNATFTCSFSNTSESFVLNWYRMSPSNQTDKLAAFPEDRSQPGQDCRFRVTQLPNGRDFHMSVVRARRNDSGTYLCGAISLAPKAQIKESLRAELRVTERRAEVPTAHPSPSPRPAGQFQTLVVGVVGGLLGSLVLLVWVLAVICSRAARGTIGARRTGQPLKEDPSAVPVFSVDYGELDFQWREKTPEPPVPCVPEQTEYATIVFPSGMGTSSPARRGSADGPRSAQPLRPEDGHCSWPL
row,EC50,Binder
1,6.09 µg/mL,"949 VK1 gL15 gH8b (antibody, V domains shown, Humanised; human kappa constant (Km3); also called Transient #3) VH: EVQLVQSGAEVKKPGSSVKVSCKAFGYTFTTYPIEWMRQAHGQGLEWIGNFHPYNDDTKYNEKFKGRVTITADKSTSTAYMELSSLRSEDTAVYYCARENYGSHGGFVYWGQGTLVTVS VL: ENVLTQSPFSLSASVGDRVTITCRASSSVISSYLHWYQQKPAKAPKLFIYSTSNLASGVPSRFSGSGSGTDYTLTISSLQPEDFATYYCQQYNSYPLTFGGGTKVEIK"
2,3.15 µg/mL,"949 VK1 gL15 gH8a (antibody, V domains shown, Humanised; human kappa constant (Km3); also called Transient #2) VH: EVQLVQSGAEVKKPGASVKVSCKAFGYTFTTYPIEWMRQAHGQGLEWIGNFHPYNDDTKYNEKFKGRVTMTRDTSTSTVYMELSSLRSEDTAVYYCARENYGSHGGFVYWGQGTLVTVS VL: ENVLTQSPFSLSASVGDRVTITCRASSSVISSYLHWYQQKPAKAPKLFIYSTSNLASGVPSRFSGSGSGTDYTLTISSLQPEDFATYYCQQYNSYPLTFGGGTKVEIK"
3,2.89 µg/mL,"949 VK1 gL15 gH20a (antibody, V domains shown, Humanised; human kappa constant (Km3); also called Transient #4) VH: EVQLVQSGAEVKKPGASVKVSCKAFGYTFTTYPIEWVRQAPGQGLEWMGNFHPYNDDTKYNEKFKGRVTMTRDTSTSTVYMELSSLRSEDTAVYYCARENYGSHGGFVYWGQGTLVTVS VL: ENVLTQSPFSLSASVGDRVTITCRASSSVISSYLHWYQQKPAKAPKLFIYSTSNLASGVPSRFSGSGSGTDYTLTISSLQPEDFATYYCQQYNSYPLTFGGGTKVEIK"
4,1.14 µg/mL,"949 VK1 gL9 gH20b (antibody, V domains shown, Humanised; human kappa constant (Km3); also called Transient #1) VH: EVQLVQSGAEVKKPGSSVKVSCKASGYTFTTYPIEWVRQAPGQGLEWMGNFHPYNDDTKYNEKFKGRVTITADKSTSTAYMELSSLRSEDTAVYYCARENYGSHGGFVYWGQGTLVTVS VL: ENVLTQSPFSLSASVGDRVTITCRASSSVISSYLHWYQQKPAKAPKLFIYSTSNLASGVPSRFSGSGSGTDYTLTISSLQPEDFATYYCQQYNGYPLTFGGGTKVEIK"
5,4.1 µg/mL,"949 VK1 gL15 gH20b (antibody, V domains shown, Humanised; also called Transient #5) VH: EVQLVQSGAEVKKPGSSVKVSCKASGYTFTTYPIEWVRQAPGQGLEWMGNFHPYNDDTKYNEKFKGRVTITADKSTSTAYMELSSLRSEDTAVYYCARENYGSHGGFVYWGQGTLVTVS VL: ENVLTQSPFSLSASVGDRVTITCRASSSVISSYLHWYQQKPAKAPKLFIYSTSNLASGVPSRFSGSGSGTDYTLTISSLQPEDFATYYCQQYNSYPLTFGGGTKVEIK"

# Molecular target: T2, human PD-1 (recombinant, titrated in BIAcore) (human, UniProt Q15116 25-170)
# T2 construct: extracellular domain; also called recombinant human PD-1 extracellular domain
# Experiment: SPR BIAcore 3000; antibody captured by anti-human Fc, human PD-1 titrated;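 note: CM5 chip with amine-coupled goat anti-human Fc F(ab′)₂, HBS-EP running buffer at 10 µL/min, blank-surface-subtracted sensorgrams fitted in BIAevaluation 3.2 for kinetic constants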
# T2 sequence (Q15116 25-170): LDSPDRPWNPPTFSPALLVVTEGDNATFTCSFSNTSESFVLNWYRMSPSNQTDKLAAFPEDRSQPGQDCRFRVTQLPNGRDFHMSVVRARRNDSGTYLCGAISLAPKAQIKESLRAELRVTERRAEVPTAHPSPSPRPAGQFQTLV
Kd,koff,kon,Binder
5.07 nM,,,"antibody CA051-00949 (949), parental variable regions, murine IgG1 (antibody, V domains shown, also called Clone 19) VH: QVQLQQSGAELVKPGASVKMSCKAFGYTFTTYPIEWMKQNHGKSLEWIGNFHPYNDDTKYNEKFKGKAKLTVEKSSTTVYLELSRLTSDDSAVYYCARENYGSHGGFVYWGQGTLVTVS VL: ENVLTQSPAIMSASPGEKVTMTCRASSSVISSYLHWYQQKSGASPKLWIYSTSNLASGVPDRFSGSGSGTSYSLTISSVEAEDAATYYCQQYNGYPLTFGAGTKLEIK"
2.35 nM,,,"949 VK1 gL9 gH8a (antibody, V domains shown, Humanised; human kappa constant (Km3)) VH: EVQLVQSGAEVKKPGASVKVSCKAFGYTFTTYPIEWMRQAHGQGLEWIGNFHPYNDDTKYNEKFKGRVTMTRDTSTSTVYMELSSLRSEDTAVYYCARENYGSHGGFVYWGQGTLVTVS VL: ENVLTQSPFSLSASVGDRVTITCRASSSVISSYLHWYQQKPAKAPKLFIYSTSNLASGVPSRFSGSGSGTDYTLTISSLQPEDFATYYCQQYNGYPLTFGGGTKVEIK"
2.34 nM,,,"949 VK1 gL9 gH8b (antibody, V domains shown, Humanised; human kappa constant (Km3)) VH: EVQLVQSGAEVKKPGSSVKVSCKAFGYTFTTYPIEWMRQAHGQGLEWIGNFHPYNDDTKYNEKFKGRVTITADKSTSTAYMELSSLRSEDTAVYYCARENYGSHGGFVYWGQGTLVTVS VL: ENVLTQSPFSLSASVGDRVTITCRASSSVISSYLHWYQQKPAKAPKLFIYSTSNLASGVPSRFSGSGSGTDYTLTISSLQPEDFATYYCQQYNGYPLTFGGGTKVEIK"
4.02 nM,0.000844 s⁻¹,210000 M⁻¹ s⁻¹,"949 VK3 gL1 gH1a (antibody, V domains shown, Humanised; human kappa constant (Km3)) VH: EVQLVQSGAEVKKPGASVKVSCKAFGYTFTTYPIEWMRQAHGQGLEWIGNFHPYNDDTKYNEKFKGRVTMTVDKSTTTVYMELSSLRSEDTAVYYCARENYGSHGGFVYWGQGTLVTVS VL: ENVLTQSPGTLSLSPGERATLSCRASSSVISSYLHWYQQKPGQAPRLWIYSTSNLASGVPDRFSGSGSGTSYTLTISRLEPEDFATYYCQQYNGYPLTFGGGTKVEIK"
5.54 nM,0.00115 s⁻¹,207000 M⁻¹ s⁻¹,"949 VK1 gL11 gH1a (antibody, V domains shown, Humanised; human kappa constant (Km3)) VH: EVQLVQSGAEVKKPGASVKVSCKAFGYTFTTYPIEWMRQAHGQGLEWIGNFHPYNDDTKYNEKFKGRVTMTVDKSTTTVYMELSSLRSEDTAVYYCARENYGSHGGFVYWGQGTLVTVS VL: ENVLTQSPFSLSASVGDRVTITCRASSSVISSYLHWYQQKPAKAPKLWIYSTSNLASGVPDRFSGSGSGTSYTLTISSLQPEDFATYYCQQYNSYPLTFGGGTKVEIK"
4.89 nM,0.00109 s⁻¹,223000 M⁻¹ s⁻¹,"949 VK3 gL11 gH1a (antibody, V domains shown, Humanised; human kappa constant (Km3)) VH: EVQLVQSGAEVKKPGASVKVSCKAFGYTFTTYPIEWMRQAHGQGLEWIGNFHPYNDDTKYNEKFKGRVTMTVDKSTTTVYMELSSLRSEDTAVYYCARENYGSHGGFVYWGQGTLVTVS VL: ENVLTQSPGTLSLSPGERATLSCRASSSVISSYLHWYQQKPGQAPRLWIYSTSNLASGVPDRFSGSGSGTSYTLTISRLEPEDFATYYCQQYNSYPLTFGGGTKVEIK"
4.75 nM,,,"949 VK1 gL14 gH8a (antibody, V domains shown, Humanised; human kappa constant (Km3)) VH: EVQLVQSGAEVKKPGASVKVSCKAFGYTFTTYPIEWMRQAHGQGLEWIGNFHPYNDDTKYNEKFKGRVTMTRDTSTSTVYMELSSLRSEDTAVYYCARENYGSHGGFVYWGQGTLVTVS VL: ENVMTQSPFSLSASVGDRVTITCRASSSVISSYLHWYQQKPAKAPKLFIYSTSNLASGVPSRFSGSGSGTDYTLTISSLQPEDFATYYCQQYNSYPLTFGGGTKVEIK"
2.92 nM,0.000556 s⁻¹,191000 M⁻¹ s⁻¹,"949 VK1 gL1 gH1b (antibody, V domains shown, Humanised; human kappa constant (Km3)) VH: EVQLVQSGAEVKKPGSSVKVSCKAFGYTFTTYPIEWMRQAHGQGLEWIGNFHPYNDDTKYNEKFKGRVTITVDKSTTTVYMELSSLRSEDTAVYYCARENYGSHGGFVYWGQGTLVTVS VL: ENVLTQSPFSLSASVGDRVTITCRASSSVISSYLHWYQQKPAKAPKLWIYSTSNLASGVPDRFSGSGSGTSYTLTISSLQPEDFATYYCQQYNGYPLTFGGGTKVEIK"
2.66 nM,,,"949 VK1 gL9 gH20b (antibody, V domains shown, Humanised; human kappa constant (Km3); also called Transient #1) VH: EVQLVQSGAEVKKPGSSVKVSCKASGYTFTTYPIEWVRQAPGQGLEWMGNFHPYNDDTKYNEKFKGRVTITADKSTSTAYMELSSLRSEDTAVYYCARENYGSHGGFVYWGQGTLVTVS VL: ENVLTQSPFSLSASVGDRVTITCRASSSVISSYLHWYQQKPAKAPKLFIYSTSNLASGVPSRFSGSGSGTDYTLTISSLQPEDFATYYCQQYNGYPLTFGGGTKVEIK"
3.17 nM,,,"949 VK1 gL9 gH20a (antibody, V domains shown, Humanised; human kappa constant (Km3)) VH: EVQLVQSGAEVKKPGASVKVSCKAFGYTFTTYPIEWVRQAPGQGLEWMGNFHPYNDDTKYNEKFKGRVTMTRDTSTSTVYMELSSLRSEDTAVYYCARENYGSHGGFVYWGQGTLVTVS VL: ENVLTQSPFSLSASVGDRVTITCRASSSVISSYLHWYQQKPAKAPKLFIYSTSNLASGVPSRFSGSGSGTDYTLTISSLQPEDFATYYCQQYNGYPLTFGGGTKVEIK"
3.38 nM,,,"949 VK1 gL12 gH20a (antibody, V domains shown, Humanised; human kappa constant (Km3)) VH: EVQLVQSGAEVKKPGASVKVSCKAFGYTFTTYPIEWVRQAPGQGLEWMGNFHPYNDDTKYNEKFKGRVTMTRDTSTSTVYMELSSLRSEDTAVYYCARENYGSHGGFVYWGQGTLVTVS VL: ENVMTQSPFSLSASVGDRVTITCRASSSVISSYLHWYQQKPAKAPKLFIYSTSNLASGVPSRFSGSGSGTDYTLTISSLQPEDFATYYCQQYNGYPLTFGGGTKVEIK"
2.46 nM,,,"949 VK1 gL12 gH8a (antibody, V domains shown, Humanised; human kappa constant (Km3)) VH: EVQLVQSGAEVKKPGASVKVSCKAFGYTFTTYPIEWMRQAHGQGLEWIGNFHPYNDDTKYNEKFKGRVTMTRDTSTSTVYMELSSLRSEDTAVYYCARENYGSHGGFVYWGQGTLVTVS VL: ENVMTQSPFSLSASVGDRVTITCRASSSVISSYLHWYQQKPAKAPKLFIYSTSNLASGVPSRFSGSGSGTDYTLTISSLQPEDFATYYCQQYNGYPLTFGGGTKVEIK"
4.38 nM,,,"949 VK1 gL14 gH8b (antibody, V domains shown, Humanised; human kappa constant (Km3)) VH: EVQLVQSGAEVKKPGSSVKVSCKAFGYTFTTYPIEWMRQAHGQGLEWIGNFHPYNDDTKYNEKFKGRVTITADKSTSTAYMELSSLRSEDTAVYYCARENYGSHGGFVYWGQGTLVTVS VL: ENVMTQSPFSLSASVGDRVTITCRASSSVISSYLHWYQQKPAKAPKLFIYSTSNLASGVPSRFSGSGSGTDYTLTISSLQPEDFATYYCQQYNSYPLTFGGGTKVEIK"
3.71 nM,0.000782 s⁻¹,211000 M⁻¹ s⁻¹,"949 VK1 gL1 gH1a (antibody, V domains shown, Humanised; human kappa constant (Km3); Heavy V regions were cloned into gamma-4P (S241P), gamma-4P delta Lys and gamma-1 delta Lys vectors) VH: EVQLVQSGAEVKKPGASVKVSCKAFGYTFTTYPIEWMRQAHGQGLEWIGNFHPYNDDTKYNEKFKGRVTMTVDKSTTTVYMELSSLRSEDTAVYYCARENYGSHGGFVYWGQGTLVTVS VL: ENVLTQSPFSLSASVGDRVTITCRASSSVISSYLHWYQQKPAKAPKLWIYSTSNLASGVPDRFSGSGSGTSYTLTISSLQPEDFATYYCQQYNGYPLTFGGGTKVEIK"
2.77 nM,,,"949 VK1 gL12 gH8b (antibody, V domains shown, Humanised; human kappa constant (Km3)) VH: EVQLVQSGAEVKKPGSSVKVSCKAFGYTFTTYPIEWMRQAHGQGLEWIGNFHPYNDDTKYNEKFKGRVTITADKSTSTAYMELSSLRSEDTAVYYCARENYGSHGGFVYWGQGTLVTVS VL: ENVMTQSPFSLSASVGDRVTITCRASSSVISSYLHWYQQKPAKAPKLFIYSTSNLASGVPSRFSGSGSGTDYTLTISSLQPEDFATYYCQQYNGYPLTFGGGTKVEIK"
3.8 nM,,,"949 VK1 gL12 gH20b (antibody, V domains shown, Humanised; human kappa constant (Km3)) VH: EVQLVQSGAEVKKPGSSVKVSCKASGYTFTTYPIEWVRQAPGQGLEWMGNFHPYNDDTKYNEKFKGRVTITADKSTSTAYMELSSLRSEDTAVYYCARENYGSHGGFVYWGQGTLVTVS VL: ENVMTQSPFSLSASVGDRVTITCRASSSVISSYLHWYQQKPAKAPKLFIYSTSNLASGVPSRFSGSGSGTDYTLTISSLQPEDFATYYCQQYNGYPLTFGGGTKVEIK"
3.14 nM,0.00065 s⁻¹,207000 M⁻¹ s⁻¹,"949 VK3 gL1 gH1b (antibody, V domains shown, Humanised; human kappa constant (Km3)) VH: EVQLVQSGAEVKKPGSSVKVSCKAFGYTFTTYPIEWMRQAHGQGLEWIGNFHPYNDDTKYNEKFKGRVTITVDKSTTTVYMELSSLRSEDTAVYYCARENYGSHGGFVYWGQGTLVTVS VL: ENVLTQSPGTLSLSPGERATLSCRASSSVISSYLHWYQQKPGQAPRLWIYSTSNLASGVPDRFSGSGSGTSYTLTISRLEPEDFATYYCQQYNGYPLTFGGGTKVEIK"
